Results published in US20220323583A1, “Pharmaceutical Formulations of Bi-Specific Diabodies and Use of the Same” (MacroGenics, Inc., priority 2019, published 2022).

How the values were obtained:
[1] = FLR SE-HPLC protein recovery (monomer peak area); assay type: physicochemical
Method: Four levels of PS80 were tested during this study to evaluate the blocking activity of the surfactant. Briefly, test stabilizer solutions (10 mM sodium phosphate at pH 6.0, 150 mM sodium chloride, 1.6 mg/mL BA and 0, 0.05, 0.1, or 0.2 mg/mL PS80) were added to a normal saline containing IV bag. After thorough mixing, the DART-A DP formulation was added to the same IV bag. The bag containing the dosing solution was incubated at 25±2° C. and samples were collected at 0, 24 and 48 hours (the longest proposed administration time). Each sample was analyzed using FLR/SE-HPLC and verified using ELISA to quantify DART-A protein recovery.
For both low and high concentration infusions, samples were collected at 24, 48, and 72 hours from sampling point #5. […] The data was calculated against the expected TO sample to obtain the DART-A recovery. […] Similar to other binding ELISA assays, these ranges are within the typical variation of this type of bioassay (50%-150%).
FLR SE-HPLC analysis was performed to measure protein purity, monomer purity and protein stability. The FLR SE-HPLC configuration included a fluorescence (FLR) detector (λX=280 nm, λE=340 nm), a mobile phase composition of 350 mM Mobile Phase (175 mMNaH2PO4, 175 mMNa2SO, pH 6.3) and a TosoBio TSK G3000SWXL size exclusion column. Samples were diluted to 0.1 mg/mL and stored at 5±3° C. for 24 to 96 hours prior to analysis. Eight μg of protein (or 100 μL is sample concentration was below 0.1 mg/mL) was injected for each 30-minute run. HMW and LMW species and monomer peaks were monitored.

A498 = assay: Redirected killing of target cell line; assay type: cell-based; conditions: A498 (CD123 negative)
[2] = tested on: primary AML specimens (BMNC, PBMC); assay: Incubation of primary AML bone marrow samples with DART-A; assay type: cell-based, human
Description: (§1) Upregulation of granzyme B and perforin levels in both CD8 and CD4 T cells was observed.

TF-1 = assay: Redirected killing of target cell line; assay type: cell-based
Human CD123-His = molecular target: T1, Human CD123-His (Homo sapiens, UniProt P26951); assay: Binding of DART-A to CD123 (ka, kd, KD)
T1 sequence (P26951 19-378): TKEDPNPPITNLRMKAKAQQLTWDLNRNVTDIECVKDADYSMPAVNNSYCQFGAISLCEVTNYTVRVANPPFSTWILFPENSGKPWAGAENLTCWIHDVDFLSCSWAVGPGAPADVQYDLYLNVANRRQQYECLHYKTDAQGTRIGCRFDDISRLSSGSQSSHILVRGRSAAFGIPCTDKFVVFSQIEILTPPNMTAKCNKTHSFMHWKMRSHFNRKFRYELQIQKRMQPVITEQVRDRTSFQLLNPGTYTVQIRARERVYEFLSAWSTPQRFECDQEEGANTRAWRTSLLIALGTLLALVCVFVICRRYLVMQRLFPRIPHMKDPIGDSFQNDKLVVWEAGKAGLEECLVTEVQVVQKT

pDCs in human PBMCs = assay: pDC depletion in PBMCs; assay type: cell-based
Description: as §1

[3] = tested on: pDCs in cynomolgus monkey PBMCs; assay: pDC depletion in PBMCs; assay type: cell-based
Description: as §1

pH = assay type: physicochemical; conditions: for pH: normal saline IV bag with Stabilizer 2
Cynomolgus CD3ε/δ = Cynomolgus CD3ε/δ (Macaca fascicularis, UniProt Q95LI5); assay: Binding of DART-A to CD3 (ka, kd, KD); design: species or system cynomolgus monkey
Visual appearance = assay type: physicochemical; conditions: for Appearance / Appearance, Particulates: 1250 ng/mL dosing solution
[4] = 10 ng/mL dosing solution, Stabilizer 2, Post Infusion (Infusion Time = 48 Hrs)
[5] = 10 ng/mL dosing solution, Stabilizer 2, Post Storage (T = 72 Hrs), room temperature
[6] = 10 ng/mL dosing solution, Stabilizer 2, T = 0
[7] = 20 ng/mL dosing solution, Stabilizer 2, Post Infusion (Infusion Time = 96 Hrs)
[8] = 20 ng/mL dosing solution, Stabilizer 2, Post Storage (T =72 Hrs), room temperature
[9] = 20 ng/mL dosing solution, Stabilizer 2, T = 0
[10] = Stabilizer 2, Post Infusion (Infusion Time = 48 Hrs)
[11] = Stabilizer 2, Post Storage (T = 72 Hrs), room temperature

Cynomolgus CD3ε/δ, sequence (Q95LI5 22-117 limits assumed): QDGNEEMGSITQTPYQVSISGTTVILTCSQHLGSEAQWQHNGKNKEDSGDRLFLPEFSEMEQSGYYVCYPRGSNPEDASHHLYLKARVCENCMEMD
Cynomolgus CD3ε/δ, sequence (Q95LI8 22-105 partner limits assumed): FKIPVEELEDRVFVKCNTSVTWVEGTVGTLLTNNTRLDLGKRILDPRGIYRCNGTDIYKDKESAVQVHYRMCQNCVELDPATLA

B1: DART-A: sequence-optimized CD123×CD3 bispecific diabody; chains SEQ ID NO:42 and SEQ ID NO:44 covalently bonded by a disulfide bond (protein)
chain 1: QAVVTQEPSLTVSPGGTVTLTCRSSTGAVTTSNYANWVQQKPGQAPRGLIGGTNKRAPWTPARFSGSLLGGKAALTITGAQAEDEADYYCALWYSNLWVFGGGTKLTVLGGGGSGGGGEVQLVQSGAELKKPGASVKVSCKASGYTFTDYYMKWVRQAPGQGLEWIGDIIPSNGATFYNQKFKGRVTITVDKSTSTAYMELSSLRSEDTAVYYCARSHLLRASWFAYWGQGTLVTVSSGGCGGGEVAALEKEVAALEKEVAALEKEVAALEK
chain 2: DFVMTQSPDSLAVSLGERVTMSCKSSQSLLNSGNQKNYLTWYQQKPGQPPKLLIYWASTRESGVPDRFSGSGSGTDFTLTISSLQAEDVAVYYCQNDYSYPYTFGQGTKLEIKGGGSGGGGEVQLVESGGGLVQPGGSLRLSCAASGFTFSTYAMNWVRQAPGKGLEWVGRIRSKYNNYATYYADSVKDRFTISRDDSKNSLYLQMNSLKTEDTAVYYCVRHGNFGNSYVSWFAYWGQGTLVTVSSGGCGGGKVAALKEKVAALKEKVAALKEKVAALKE
modifications: interchain disulfide bond; First Polypeptide Chain of DART-A; Second Polypeptide Chain of DART-A
In the case of B1, the “DART-A Monomer Peak Area in SE-HPLC FLR” value ([1]; Study 1, Stabilizer 1, dual-pump infusion RT, High (5000 ng/mL), Expected or Control (T0)) is reported as 1814623 EU * min, the “DART-A Monomer Peak Area in SE-HPLC FLR” value ([1]; Study 1, Stabilizer 1, dual-pump infusion RT, High (5000 ng/mL), T = 24 hours) is reported as 1483536 EU * min and the “DART-A Monomer Peak Area in SE-HPLC FLR” value ([1]; Study 1, Stabilizer 1, dual-pump infusion RT, High (5000 ng/mL), T = 48 hours) is reported as 1792023 EU * min. For the same molecule, the “DART-A Monomer Peak Area in SE-HPLC FLR” value ([1]; Study 1, Stabilizer 1, dual-pump infusion RT, High (5000 ng/mL), T = 72 hours) was 1804667 EU * min, the “DART-A Monomer Peak Area in SE-HPLC FLR” value ([1]; Study 1, Stabilizer 1, dual-pump infusion RT, Low (100 ng/mL), Expected or Control (T0)) was 46006 EU * min and the “DART-A Monomer Peak Area in SE-HPLC FLR” value ([1]; Study 1, Stabilizer 1, dual-pump infusion RT, Low (100 ng/mL), T = 24 hours) was 37026 EU * min. For the same molecule, the “DART-A Monomer Peak Area in SE-HPLC FLR” value ([1]; Study 1, Stabilizer 1, dual-pump infusion RT, Low (100 ng/mL), T = 48 hours) was 44708 EU * min, the “DART-A Monomer Peak Area in SE-HPLC FLR” value ([1]; Study 1, Stabilizer 1, dual-pump infusion RT, Low (100 ng/mL), T = 72 hours) was 49122 EU * min and the “DART-A Monomer Peak Area in SE-HPLC FLR” value ([1]; Study 2, Stabilizer 1, cassette 25° C., 100 rpm, High (5000 ng/mL), T = 0) was 41031471 EU * min. For the same molecule, the “DART-A Monomer Peak Area in SE-HPLC FLR” value ([1]; Study 2, Stabilizer 1, cassette 25° C., 100 rpm, High (5000 ng/mL), T = 24 hours) was 40529514 EU * min, the “DART-A Monomer Peak Area in SE-HPLC FLR” value ([1]; Study 2, Stabilizer 1, cassette 25° C., 100 rpm, High (5000 ng/mL), T = 48 hours) was 41438367 EU * min and the “DART-A Monomer Peak Area in SE-HPLC FLR” value ([1]; Study 2, Stabilizer 1, cassette 25° C., 100 rpm, High (5000 ng/mL), T = 72 hours) was 41582544 EU * min. The “DART-A Monomer Peak Area in SE-HPLC FLR” value ([1]; Study 2, Stabilizer 1, cassette 25° C., 100 rpm, Low (100 ng/mL), T = 0) was 355660 EU * min, the “DART-A Monomer Peak Area in SE-HPLC FLR” value ([1]; Study 2, Stabilizer 1, cassette 25° C., 100 rpm, Low (100 ng/mL), T = 24 hours) was 379757 EU * min and the “DART-A Monomer Peak Area in SE-HPLC FLR” value ([1]; Study 2, Stabilizer 1, cassette 25° C., 100 rpm, Low (100 ng/mL), T = 48 hours) was 377121 EU * min. For the same molecule, the “DART-A Monomer Peak Area in SE-HPLC FLR” value ([1]; Study 2, Stabilizer 1, cassette 25° C., 100 rpm, Low (100 ng/mL), T = 72 hours) was 394028 EU * min, the “DART-A Monomer Peak Area in SE-HPLC FLR” value ([1]; Study 3, Stabilizer 1, cassette 37° C., 100 rpm, Low (100 ng/mL), T = 0) was 397095 EU * min and the “DART-A Monomer Peak Area in SE-HPLC FLR” value ([1]; Study 3, Stabilizer 1, cassette 37° C., 100 rpm, Low (100 ng/mL), T = 72 hours) was 368950 EU * min. The “DART-A Monomer Peak Area in SE-HPLC FLR” value ([1]; Study 3, Stabilizer 1, cassette 37° C., 100 rpm, second group, target concentration not given, T = 0) was 41031489 EU * min, the “DART-A Monomer Peak Area in SE-HPLC FLR” value ([1]; Study 3, Stabilizer 1, cassette 37° C., 100 rpm, second group, target concentration not given, T = 72 hours) was 39005201 EU * min and the “Max % Killing” value (A498) was “No activity”. The “EC50, redirected killing” value (A498; E:T = 10:1) was “No activity”, the leukemic cell population [2] was “depletion of the leukemic cell population over time” and the “residual T cells (CD4 and CD8)” value [2] was “expansion of the residual T cells”. The “Max % Killing” value (TF-1) was 46%, the “ka (± SD)” value (Human CD123-His) was 1.6 (± 0.4) × 10^6 M^−1s^−1 and the “kd (± SD)” value (Human CD123-His) was 1.9 (± 0.4) × 10^−4 s^−1. For the same molecule, the “depletion of pDCs” value (pDCs in human PBMCs) was “capable of mediating the depletion of pDCs cells”, the “depletion of pDCs” value [3] was “capable of mediating the depletion of pDCs cells” and the pH (pH; 10 ng/mL dosing solution, Post Infusion (Infusion Time = 48 Hrs)) was 8.1. For the same molecule, the pH (pH; 10 ng/mL dosing solution, Post Storage (T = 72 Hrs), room temperature) was 8.1, the pH (pH; 10 ng/mL dosing solution, T = 0) was 8.1 and the pH (pH; 20 ng/mL dosing solution, Post Infusion (Infusion Time = 96 Hrs)) was 7.9. For the same molecule, the pH (pH; 20 ng/mL dosing solution, Post Storage (T =72 Hrs), room temperature) was 8.1, the pH (pH; 20 ng/mL dosing solution, T = 0) was 8.1 and the pH (pH; 1250 ng/mL dosing solution, Post Infusion (Infusion Time = 48 Hrs)) was 8.0. The pH (pH; 1250 ng/mL dosing solution, Post Storage (T = 72 Hrs), room temperature) was 8.0, the pH (pH; 1250 ng/mL dosing solution, T = 0) was 8.0 and the “changes in pH, visual appearance and osmolality post-infusion vs T=0” value (pH; Stabilizer 2 dosing solutions) was “no significant changes in pH, visual appearance, and osmolality”. For the same molecule, the “ka (± SD)” value (Cynomolgus CD3ε/δ) was 5.5 (± 0.5) × 10^5 M^−1s^−1, the “kd (± SD)” value (Cynomolgus CD3ε/δ) was 5.0 (± 0.9) × 10^−3 s^−1 and the Kd (Cynomolgus CD3ε/δ; read-out: KD (± SD)) was 9.2 ± 2.3 nM. For the same molecule, the “Visual Appearance” value (Visual appearance; [4]) was “C, L”, the “Visual Appearance, Particulates” value (Visual appearance; [4]) was “FNP, FPP” and the “Visual Appearance” value (Visual appearance; [5]) was “C, L”. The “Visual Appearance, Particulates” value (Visual appearance; [5]) was “FNP, FPP”, the “Visual Appearance” value (Visual appearance; [6]) was “C, L” and the “Visual Appearance, Particulates” value (Visual appearance; [6]) was “FNP, FPP”. The “Visual Appearance” value (Visual appearance; [7]) was “C, L”, the “Visual Appearance, Particulates” value (Visual appearance; [7]) was “FNP, FPP” and the “Visual Appearance” value (Visual appearance; [8]) was “C, L”. For the same molecule, the “Visual Appearance, Particulates” value (Visual appearance; [8]) was “FNP, FPP”, the “Visual Appearance” value (Visual appearance; [9]) was “C, L” and the “Visual Appearance, Particulates” value (Visual appearance; [9]) was “FNP, FPP”. The Appearance (Visual appearance; [10]) was “C, L”, the “Appearance, Particulates” value (Visual appearance; [10]) was “FNP, FPP” and the Appearance (Visual appearance; [11]) was “C, L”. The “Appearance, Particulates” value (Visual appearance; [11]) was “FNP, FPP”, the Appearance (Visual appearance; Stabilizer 2, T = 0) was “C, L” and the “Appearance, Particulates” value (Visual appearance; Stabilizer 2, T = 0) was “FNP, FPP”. The Visual Appearance (Visual appearance; 0.1 mg/mL in Stabilizer 2 dosing solution, storage and administration) was “No change in visual appearance” and the “visual appearance of dosing solutions” value (Visual appearance; Stabilizer 2 in saline bag, T=0, after 72 h storage and post infusion (48 or 96 hours)) was “clear, colorless with no visible particulates”.
